Laboratory results taken from article PMC7353053, “Characterisation of the Effect of the Spatial Organisation of Hemicellulases on the Hydrolysis of Plant Biomass Polymer” (International Journal of Molecular Sciences, 2020).

Experiments:
[1] = target: His-BhXyl43 (Bacillus halodurans C-125); experiment: SAXS; proteins in 50 mM phosphate pH 7, around 10 mg/mL; direct injection and online SEC-HPLC curves merged; fit to the dimer of PDB 1YRZ or rigid body modelling; dimer to monomers
[2] = target: His-In-NpXyn11A-Jo-BhXyl43 (not stated | Neocallimastix patriciarum | Bacillus halodurans C-125); experiment: as above
[3] = target: His-In-NpXyn11A-BhXyl43-Jo (not stated | Neocallimastix patriciarum | Bacillus halodurans C-125); experiment: as above
purified protein = substrate: O=[N+]([O-])c1ccc(O[C@@H]2OC[C@@H](O)[C@H](O)[C@H]2O)cc1; experiment: purified protein; type: biochemical, Halalkalibacterium halodurans; settings: 50 mM Tris-HCl pH 8, 1 mg/mL BSA, 45 °C, 10 min, 0.1 to 18 mM substrate

With His-BhXyl43 (enzyme) the stoichiometry N [1] was 2.

Molecule His-In-NpXyn11A-Jo-BhXyl43 (complex) has a stoichiometry N [2] of 2.

His-In-NpXyn11A-BhXyl43-Jo (complex) was tested, and the stoichiometry N [3] was 2.

B1: His-Jo-BhXyl43 (Halalkalibacterium halodurans C-125) (protein)
chain: MVNRIQNPILPGFHPDPSIVRVGDDYYIATSTFEWFPGVRIHHSRDLKHWRFVSSPLTRTSQLDMKGNMNSGGIWAPCLSYHDGTFYLIYTDVKQWHGAFKDAHNYLVTAQNIEGPWSDPIYLNSSGFDPSLFHDDDGRKWLVNMIWDYRKGNHPFAGIILQEYSEAEQKLVGPVKNIYKGTDIQLTEGPHLYKKDGYYYLLVAEGGTEYEHAATLARSQSIDGPYETDPSYPLVTSTGQPELALQKAGHGSLVETQNGEWYLAHLCGRPLKGKYCTLGRETAIQKVNWTEDGWLRIEDGGNHPLREVTAPDLPEHPFEKEPELDDFDAPQLHHQWNTLRIPADPSWCSLEERPGHLRLRGMESLTSVHSQSLVARRQQSFHCEVETKLEYQPESFQHMAGLVIYYDTEDHVYLHVTWHEEKGKCLQIIQTKGGNYDELLASPIPLAEEKAVYLKGRIHRETMHLYFKQEGEAEWQPVGPTIDVTHMSDDSAKQVRFTGTFVGMATQDLSGTKKPADFDYFRYKELDQ
notes: N-terminal His6 tag and Jo module (about 10 kDa, isopeptide-forming fragment) fused to the N-terminus of BhXyl43 (63 kDa); expressed in E. coli BL21(DE3), IMAC purified
B1 gave a Km (purified protein) of 6.01 ± 0.41 mM, a kcat (purified protein) of 18.1 ± 1.17 s⁻¹ and a kcat/Km (purified protein) of 3015 ± 10.9 M⁻¹ s⁻¹.
